Measurements published in patent publication US20200360469A1 (published 2020).

Target: full-length (FL) BRAF^WT, 6x-HIS-BRAF-WT/FLAG (human, UniProt P15056 2-766)
Experiment: kinase activity inhibition (ELISA); with 0.1 nM Dabrafenib

Sequence of full-length (FL) BRAF^WT, 6x-HIS-BRAF-WT/FLAG (P15056 2-766): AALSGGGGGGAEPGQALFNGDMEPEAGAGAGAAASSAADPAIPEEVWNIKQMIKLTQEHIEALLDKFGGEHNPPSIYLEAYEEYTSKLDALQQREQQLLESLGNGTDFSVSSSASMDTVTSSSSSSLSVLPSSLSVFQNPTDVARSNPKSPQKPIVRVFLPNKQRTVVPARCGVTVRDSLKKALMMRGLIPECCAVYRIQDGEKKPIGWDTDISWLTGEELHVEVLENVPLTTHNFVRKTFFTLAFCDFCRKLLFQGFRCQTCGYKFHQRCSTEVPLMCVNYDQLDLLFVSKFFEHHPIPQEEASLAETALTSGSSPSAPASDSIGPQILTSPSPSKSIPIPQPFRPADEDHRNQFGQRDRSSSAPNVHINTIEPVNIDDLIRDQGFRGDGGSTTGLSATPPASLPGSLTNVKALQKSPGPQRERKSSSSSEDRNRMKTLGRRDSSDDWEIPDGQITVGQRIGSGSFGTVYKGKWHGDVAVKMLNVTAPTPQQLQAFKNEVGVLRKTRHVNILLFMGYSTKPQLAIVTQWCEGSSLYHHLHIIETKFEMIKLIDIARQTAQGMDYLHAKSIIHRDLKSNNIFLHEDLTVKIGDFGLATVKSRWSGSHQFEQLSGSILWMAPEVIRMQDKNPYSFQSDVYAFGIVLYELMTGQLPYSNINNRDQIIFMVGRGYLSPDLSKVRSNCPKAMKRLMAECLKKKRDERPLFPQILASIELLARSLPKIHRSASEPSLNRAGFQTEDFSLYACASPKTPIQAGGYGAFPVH

B1: braftide (peptide)
peptide: TRHVNILLFM
- IC50: 280 nM
